From patent US10851403B2, “Cyclin-dependent kinase substrate” (SYSMEX CORPORATION, priority 2017, dated 2020)
No end group written: not given here. *: point of attachment. Biotin = O=C1N[C@H]2[C@H](CS[C@H]2CCCCC(=O)*)N1; Ahx = NCCCCCC(=O)O

What was measured:
CDK6/cyclin D3 = molecular target: T1, CDK6/cyclin D3 (Homo sapiens, UniProt Q00534); experiment: CDK reactivity test 6 (Test Example 6), automated immunoassay system HISCL-800; assay type: biochemical; details: 0.01 to 10 μg/mL CDK1/A2, CDK2/E1, CDK4/D3 or CDK6/D3; ATP; anti-phospho-antibody; 42° C. 3 minutes
T1 construct: purchased SignalChem
Method: The reactivity of the polypeptide (Polypeptide 28) obtained in Production Example 5 to CDK1, CDK2, CDK4 and CDK6 was examined using an automated immunoassay system (manufactured by Sysmex Corporation, HISCL-800). Specifically, it was performed as follows.
In a well of a plate, 30 μL of a CDK solution (composition: 0.01 to 10 μg/mL CDK/cyclin complex, 1% BSA, triethanolamine buffer solution (pH 7.5)) containing CDK1/cyclin A2, CDK2/cyclin E1, CDK4/cyclin D3 or CDK6/cyclin D3 (all manufactured by SignalChem) and 30 μL of a kinase reaction solution (composition: 4 μg/mL substrate peptide, 50 mM HEPES-NaOH buffer solution (pH 7.4), 15 mM MgCl2, 16 mM ATP) containing Polypeptide 28 as a substrate peptide were mixed, and the plate was incubated at 42° C. for 3 minutes. 30 μL (containing 0.15 μg of magnetic St-Ab beads) of a HISCL HBsAg R2 reagent (manufactured by Sysmex Corporation) was added to the well, and the plate was incubated at 42° C. for 2 minutes. The beads in the well were precipitated using a magnet, and the supernatant was removed. Then, a HISCL washing solution (manufactured by Sysmex Corporation) was added, and the beads were washed by shaking several times. […] Luminescence was detected with a luminometer, and the luminescence intensity was measured.

CDK4/cyclin D3 = molecular target: T2, CDK4/cyclin D3 (Homo sapiens, UniProt P11802); experiment: CDK reactivity test 3 (Test Example 3); assay type: biochemical; details: luminescence intensity when using CDK6 set as 100%, HRP-labeled anti-FITC antibody
T2 construct: purchased SignalChem
Method: The reactivity of the polypeptides obtained in Production Example 3 to CDK1, CDK2, CDK4 and CDK6 was examined. Specifically, it was performed as follows.
In a well of a hydrophilic filter plate, 30 μL of a CDK solution (composition: 10 μg/mL CDK/cyclin complex, 1% BSA, triethanolamine buffer solution (pH 7.5)) containing CDK1/cyclin A2, CDK2/cyclin E1, CDK4/cyclin D3 or CDK6/cyclin D3 (all manufactured by SignalChem) and 30 μL of a kinase reaction solution (composition: 4 μg/mL substrate peptide, 50 mM HEPES-NaOH buffer solution (pH 7.4), 15 mM MgCl2, 2 mM ATP-γS) containing any of Comparative Polypeptides 2 to 4 as a substrate peptide were mixed, and the plate was incubated at 37° C. for 1 hour with stirring at 900 rpm using a constant temperature shaker. The reaction solution was recovered by centrifugation (4° C., 2000 rpm, 5 minutes), and 28.6 μL of the reaction solution was dispensed into each well of a PCR plate. […] Luminescence was detected with a luminescence plate reader, and the luminescence intensity was measured. For each polypeptide, the relative value of the luminescence intensity when using other CDKs, in the case where the luminescence intensity when using CDK6 was set as 100%, was calculated.

T1 sequence (Q00534 whole entry): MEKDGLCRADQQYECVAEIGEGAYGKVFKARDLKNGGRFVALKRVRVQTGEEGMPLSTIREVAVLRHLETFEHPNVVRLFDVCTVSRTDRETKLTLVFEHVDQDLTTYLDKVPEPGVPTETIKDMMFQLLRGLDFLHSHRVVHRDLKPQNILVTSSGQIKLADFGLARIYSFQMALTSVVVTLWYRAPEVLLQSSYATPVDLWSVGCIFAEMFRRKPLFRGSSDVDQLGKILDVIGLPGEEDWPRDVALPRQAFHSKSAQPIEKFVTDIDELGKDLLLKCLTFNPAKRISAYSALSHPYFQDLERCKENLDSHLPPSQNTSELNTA
T1 sequence (P30281 whole entry partner): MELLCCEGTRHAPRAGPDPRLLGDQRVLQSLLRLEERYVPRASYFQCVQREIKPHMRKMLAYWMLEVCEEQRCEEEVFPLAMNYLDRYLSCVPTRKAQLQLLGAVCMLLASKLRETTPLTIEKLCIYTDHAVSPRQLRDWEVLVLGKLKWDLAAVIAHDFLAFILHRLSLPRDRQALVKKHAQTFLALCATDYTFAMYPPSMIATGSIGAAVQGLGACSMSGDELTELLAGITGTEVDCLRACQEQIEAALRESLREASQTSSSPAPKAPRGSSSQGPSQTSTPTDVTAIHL
T2 sequence (P11802 whole entry): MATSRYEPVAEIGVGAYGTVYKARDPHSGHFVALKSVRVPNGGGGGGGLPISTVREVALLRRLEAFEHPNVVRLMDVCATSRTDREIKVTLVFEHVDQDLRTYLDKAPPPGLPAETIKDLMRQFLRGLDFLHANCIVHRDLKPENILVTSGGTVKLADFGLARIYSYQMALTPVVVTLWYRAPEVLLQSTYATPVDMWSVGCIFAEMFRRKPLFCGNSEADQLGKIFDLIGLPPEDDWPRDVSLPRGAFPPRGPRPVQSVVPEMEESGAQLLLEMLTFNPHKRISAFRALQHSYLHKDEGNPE
T2 sequence (P30281 whole entry partner): as the sequence (P30281 whole entry partner) above

| Sequence | specific detection of CDK (luminescence intensity versus CDK concentration, FIG. 3) (CDK6/cyclin D3) | relative value of the luminescence intensity (CDK4/cyclin D3) |
| --- | --- | --- |
| GAPWSPDPWDDGGGG ({Biotin-Ahx}-GAPWSPDPWDDGGGG) [Polypeptide 28, acidic-residue mutant of Polypeptide 3, N-terminal biotin via aminohexane linker] | a substrate capable of specifically detecting CDK6 |  |
| PYKISEGLPTPAKMAPRSRI (PYKISEGLPTPAKMAPRSRI-NH2; not fully specified (N-terminus)) [Comparative Polypeptide 4, Comparative Polypeptide 3 with the CDK4 phosphorylation site residue replaced with alanine; N-terminal biotin] |  | Not detected |
